Test results taken from article doi:10.1101/2023.11.08.566319.

Target: T33-51 protein cage subunit B
Assay: native MS; SEC-purified co-expressed cage, 2 uM in 200 mM ammonium acetate pH 7.4; Q Exactive UHMR
Settings: scale: copies of A with 12 copies of B in the cage

stoichiometry N: 11
Substance: T33-51 protein cage subunit A (designed binder)
